Data as given in article PMC3229523, “Identification of Lactoferricin B Intracellular Targets Using an Escherichia coli Proteome Chip” (PLoS ONE, 2011).
Ends that are not written are not given here. * marks the point of attachment. Biotin = O=C1N[C@H]2[C@H](CS[C@H]2CCCCC(=O)*)N1

What was measured:
Experiment in all cases: peptide or protein array; E. coli proteome chip: purified His-tagged proteins printed in duplicate on Fullmoon slides, blocked with 1% BSA; 10 nM N-terminal biotinylated LfcinB with 1% BSA, room temperature, 1 h; detected with DyLight 649-labeled streptavidin, ratio to DyLight 549-labeled anti-His antibody; ProCAT normalisation, local cut-off; triplicate chips
Settings in all cases: both partners purified
[1] = biological target: T1, AtpH (E. coli K-12, UniProt P0ABA4 1-177)
T1 construct: AtpH, E. coli K-12

[2] = biological target: T2, PaaG (E. coli K-12, UniProt P77467 1-262)
T2 construct: PaaG, E. coli K-12
T2 sequence (looked up): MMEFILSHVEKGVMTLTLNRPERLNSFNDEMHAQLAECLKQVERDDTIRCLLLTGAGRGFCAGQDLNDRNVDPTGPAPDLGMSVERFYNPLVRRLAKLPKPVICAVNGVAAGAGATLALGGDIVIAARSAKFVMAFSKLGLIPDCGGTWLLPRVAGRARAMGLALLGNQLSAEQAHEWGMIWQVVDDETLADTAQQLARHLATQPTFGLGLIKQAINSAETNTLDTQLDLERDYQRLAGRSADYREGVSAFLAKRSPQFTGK

[3] = biological target: T3, Sun (E. coli K-12, UniProt P36929 1-429)
T3 construct: Sun, E. coli K-12
T3 sequence (looked up): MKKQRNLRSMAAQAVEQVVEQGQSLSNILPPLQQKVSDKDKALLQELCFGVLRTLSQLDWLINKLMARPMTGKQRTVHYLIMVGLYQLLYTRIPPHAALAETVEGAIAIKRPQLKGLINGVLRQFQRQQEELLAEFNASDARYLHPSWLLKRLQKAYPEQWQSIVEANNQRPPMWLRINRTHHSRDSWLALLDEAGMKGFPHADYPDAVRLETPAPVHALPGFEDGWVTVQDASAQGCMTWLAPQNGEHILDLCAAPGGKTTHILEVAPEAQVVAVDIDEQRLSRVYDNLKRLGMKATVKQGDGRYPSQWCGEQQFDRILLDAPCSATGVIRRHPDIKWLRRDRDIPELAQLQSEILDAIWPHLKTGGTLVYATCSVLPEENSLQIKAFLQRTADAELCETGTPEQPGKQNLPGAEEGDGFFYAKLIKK

[4] = biological target: T4, YheH (E. coli K-12, UniProt P45760 7-125)
T4 construct: YheH, E. coli K-12
T4 sequence (looked up): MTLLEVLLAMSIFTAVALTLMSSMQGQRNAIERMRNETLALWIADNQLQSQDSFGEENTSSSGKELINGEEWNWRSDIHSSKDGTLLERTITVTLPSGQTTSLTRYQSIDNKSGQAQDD

[5] = biological target: T5, GloA (E. coli K-12, UniProt P0AC81 1-135)
T5 construct: GloA, E. coli K-12
T5 sequence (looked up): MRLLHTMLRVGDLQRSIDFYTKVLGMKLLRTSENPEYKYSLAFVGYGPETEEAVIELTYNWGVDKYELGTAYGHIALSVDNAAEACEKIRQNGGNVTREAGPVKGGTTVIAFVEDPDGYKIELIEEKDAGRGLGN

[6] = biological target: T6, HyaE (E. coli K-12, UniProt P19931 1-132)
T6 construct: HyaE, E. coli K-12
T6 sequence (looked up): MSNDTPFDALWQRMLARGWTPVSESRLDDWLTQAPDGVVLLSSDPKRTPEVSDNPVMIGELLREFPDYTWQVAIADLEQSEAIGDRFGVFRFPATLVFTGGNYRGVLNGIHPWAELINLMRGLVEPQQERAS

[7] = biological target: T7, PurC (E. coli K-12, UniProt P0A7D7 1-237)
T7 construct: PurC, E. coli K-12
T7 sequence (looked up): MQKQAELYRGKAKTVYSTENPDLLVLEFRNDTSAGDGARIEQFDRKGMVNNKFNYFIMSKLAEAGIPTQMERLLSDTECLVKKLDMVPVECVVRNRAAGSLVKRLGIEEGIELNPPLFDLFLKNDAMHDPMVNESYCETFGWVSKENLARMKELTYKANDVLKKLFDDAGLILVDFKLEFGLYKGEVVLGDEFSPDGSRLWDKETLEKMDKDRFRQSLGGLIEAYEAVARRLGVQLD

Measured: binding result

T1 sequence (P0ABA4 whole entry): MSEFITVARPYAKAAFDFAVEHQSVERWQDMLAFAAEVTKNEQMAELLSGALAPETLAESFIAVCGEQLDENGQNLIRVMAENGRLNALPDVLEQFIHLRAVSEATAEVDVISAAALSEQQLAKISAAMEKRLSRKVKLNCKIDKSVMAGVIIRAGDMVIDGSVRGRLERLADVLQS

B1: N-terminal biotinylated Lactoferricin B (peptide, UniProt P24627 36-60, looked up)
peptide: Biotin-FKCRRWQWRMKKLGAPSITCVRRAF
modifications: ends and bridges not checked
notes: lactoferricin B (LfcinB), cationic antimicrobial peptide of 25 amino acids; also called biotinylated LfcinB; biotin-labeled LfcinB; source: bought: Kelowna Inc
binds: all assays above
